Laboratory results from publication doi:10.1101/306175.

Columns and labels:
[1] = molecular target: DNA polymerase I Klenow Fragment (KF) (E. coli, UniProt P00582 324-928, D424A); experiment: single-molecule FRET
[2] = molecular target: Pol β "wild-type" (unlabelled) (UniProt P06746 1-335, C239S;C267S;V303C); experiment: single-molecule FRET titration

B1: 1-nt gapped DNA bending sensor (Cy3B/Cy5) (dsDNA)
DNA 1: CCTCATTCTTCGTCCCATTACCATACATCC
DNA 2: CCACGAAGCAGGCTCTACTCTCTAAGGATGTATGGTAATGGGACGAAGAATGAGG
DNA 3: TAGAGAGTAGAGCCTGCTTCGTGG
modifications: primer 3' dideoxy-terminated (printed TCCH); 5'-phosphate on downstream strand
binding result [1]: binds | Kd [2]: 19 ± 2 nM
